Numbered stars: 1 amine (or outer) side, 2 acyl side, 3 side chain; on linkers, the order of the positions; unused ones are H or OH. Bridge positions count the residues as written; N and C are the ends. Square brackets hold non-standard residues; d marks the D form. Triazole bridges read from a SMILES are 1,4-linked. Ends that are not written are not given here. Peptide text beside a SMILES is read from it. * marks the point of attachment. DOTA = O=C(O)CN1CCN(CC(=O)O)CCN(CC(=O)*)CCN(CC(=O)O)CC1; Pteroyl = Nc1nc2ncc(CNc3ccc(C(=O)*)cc3)nc2c(=O)[nH]1; Butanoyl(4-(4-I-phenyl)) = O=C(CCCc1ccc(I)cc1)*; Lys(N3) = [N-]=[N+]=NCCCC[C@H](N)C(=O)O; γGlu = O=C(O)[C@H](CCC(=O)[*:2])N[*:1]; X3 = O=C(CO/N=C/c1ccc(F)cc1)*; AEEEA = NCCOCCOCCOCC(=O)O; Pra = C#CC[C@H](N)C(=O)O; X2 = NOCC(=O)*
Experiments:
Plasma stability, human = conditions: Hu; for half-life at 2 μM: pH 7.4, Plasma Stability (t 1/2)
Protocol: (§5) Plasma was thawed in a 37° C. water bath. Residual clots were removed via centrifugation at 4000 rpm for 5 minutes. The pH of the plasma was adjusted to 7.4 if required. Test articles were diluted to 100 μM by diluting a 1 mM working solution (in DMSO) with 45% methanol in water. To 98 μL of plasma was added 2 μL of the 100 μM solution, resulting in 2 μM final concentration of the test article. Samples were incubated at 37° C. in a water bath. At the indicated time points (0, 10, 30, 60, 120 minutes) 100 μL of 4% H3PO4 was added followed by 800 μL of stop solution (200 ng/mL tolbutamide and 200 ng/mL labetalol in 100% acetonitrile). The samples were centrifuged and the plasma protein-free supernatant (100 μL) was subjected to LC-MS/MS analysis.

Plasma stability, mouse = conditions: Mu; for half-life at 2 μM: CD-1, mouse, pH 7.4, Plasma Stability (t 1/2)
Protocol: as §5

[1] = tested on: OVCAR3 (FOLR1+) tumor bearing NSG mice; experiment: in vivo; conditions: mouse
Protocol: Female, 7-week-old NSG mice were housed under pathogen-free conditions. Water and food were provided ad libitum. To create mice with FOLR1+ ovarian xenograft tumors, mice were injected subcutaneously with OVCAR3 cells (1×10^7 cells per mouse) resuspended in 50% Matrigel in PBS into the shoulder region. Tumor growth was monitored by caliper measurements. OVCAR3 is a human ovarian adenocarcinoma known to over-express FOLR1.
^68Ga PET imaging was used to study in vivo biodistribution of heterobiligands in non-tumor bearing (healthy) mice and OVCAR3 tumor bearing mice. 100-200 μCi of [^68Ga]DOTA-labeled heterobiligand was administered intravenously (i.v.) via the tail vein of each mouse. Dynamic PET imaging was performed from 0-1 h, followed by acquisition of static PET images at 2 h and 4 h post-injection. CT scans were acquired for anatomical reference. Imaging was performed on an Inveon microPET/CT small animal scanner. The PET signal was quantitated by three-dimensional ROI analysis and represented as percent injected dose (% ID) vs. time ([…]) for major organs including tumor, liver, heart, lung, bladder, and kidney.
Evaluation of a folate-hshta (SEQ ID NO:6) Nterm heterobiligand bearing both an albumin binder and DOTA chelator in PET was a priority, given that DOTA can accommodate both ^68Ga for imaging and ^177Lu for radiotherapy. A 200 μCi dose of ^68Ga-labeled folate-hshta-PEG3-Lys(MPBA)-Lys(DOTA) (SEQ ID NO:6) (compound #2809) was injected i.v. via tail vein in an NSG mouse bearing s.c. human OVCAR3 (FOLR1+) tumor. ^68Ga PET/CT imaging scans were performed at 0-1 h (dynamic), 2 h (static), and 4 h (static). […] The time-course biodistribution of ^68Ga-labeled folate-hshta-PEG3-Lys(MPBA)-Lys(DOTA) (SEQ ID NO:6) (compound #2809) was calculated to quantify the uptake in major organs including the tumor (FIG. 17). […] Larger tumors (490 mm^3) were also evaluated with the ^68Ga-chelated PET probe.
Images were captured for compound #1307 at the time points 5 min, 10 min, 15 min, 30 min, 1 h, 2 h, and 4 h. PET/CT images were taken following the injection of 4 female NSG mice with ^68Ga-chelated compound #2809. […] Images for mouse 4 are shown in FIG. 23 (Compounds #1307 and #2809) and FIG. 24 (Compound #1307).
Biodistribution was initially evaluated by PET imaging, as the time frame for a significant portion of clearance is roughly similar to the time frame of PET imaging experiments. Indi ^68Ga-7327 was injected via the tail vein into OVCAR3 (FOLR+) tumor implanted female NSG mice once the tumor size reached 200 mm^3, and microPET/CT scans were acquired at 5 min, 10 min, 15 min, 30 min, 1 h, 2 h, and 4 h post-injection. PET images were corrected for CT-based photon attenuation, detector normalization and radioisotope decay and converted to units of percent injected dose per cc (% ID/cc).

human recombinant NEP = human recombinant NEP (Homo sapiens, UniProt P08473); type: biochemical
Protocol: In order to test the susceptibility of GFK and MVK linkers to NEP-mediated cleavage, the peptide (Folate-hshta-Lys(MPBA)-Gly-Phe-Lys(DOTA) (SEQ ID NO:6)) was incubated with human recombinant NEP and analyzed the solution for the presence of cleaved adducts. MALDI was utilized to monitor the cleavage of a PCC heterobiligand that contains a NEP protease recognizable sequence (G-F-K). The PCC concentration was constant and the NEP concentration was titrated down from 10 nM to 1 nM, 0.1 nM, 0.01 nM, and no NEP. The NEP-mediated cleaved adduct was identified by mass. 10 μM PCC containing the GFK linker was combined with varying amounts of NEP. […] Below 0.1 nM no cleavage was observed. • Folate-hshta-Lys(MPBA)-Gly-Phe-Lys(DOTA) (SEQ ID NO:6) • Molecular weight 2231.42
The NEP-mediated cleavage was also monitored by HPLC. In agreement with the MALDI spectra, the HPLC chromatograms show depletion of the parent brush-border heterobiligand (retention time 17.1 minutes), dose-dependent on the amount of NEP spiked into the sample (10 nM, 1 nM, 0.1 nM, 0.01 nM, and no NEP). An appearance of a new peak (retention time 16.5 minutes) in concert with the depletion of the starting material is presumed to be the cleaved folate-containing peptide.
In order to test the specificity of NEP, a non-cleavable linker (PEG3) was also assayed.
To reduce the radioactive dose to the kidney, Indi ^177Lu-7327 was constructed to incorporate a GFK linker that is susceptible to cleavage by enzymes found predominately in the kidney's brush border. These enzymes cleave off the radionuclide-chelator complex, which is quickly eliminated by the kidney for excretion in the urine. The zinc metalloprotease neprilysin (NEP) is expressed with high abundance in the kidney. […] To confirm NEP-mediated cleavage of the GFK linker in Indi 7327, the peptide was incubated with recombinant human NEP at 37° C. for 1 h and analyzed by matrix-assisted laser desorption/ionization mass spectrometry (MALDI-MS) for the evolution of cleaved adducts (FIG. 42). […] The expected cleaved adduct (mass: 1283.16 m/z) appears in the samples containing 10, 1.0, and 0.1 nM NEP. […] Below 0.1 nM NEP, no cleavage was observed. In addition to confirming the selectivity of NEP for the GFK linker, it is also important to note that the remaining portions of the Indi 7327 were impervious to the enzyme.

[2] = Plasma protein binding (equilibrium dialysis), human; type: in vitro ADME
Protocol: (§1) HTD 96 a/b regenerated cellulose membrane strips with mass cutoff of 12-14 kDa were soaked in ultra-pure water at room temperature for 1 hour. Each swelled membrane was then soaked in 20:80 ethanol:water for 20 minutes.
(§2) Just prior to the experiment, the membranes were re-soaked in ultra-pure water. Plasma was prepared by thawing under cold water. The plasma was centrifuged to remove any clots and pH was adjusted to 7.0-8.0. Test articles and control compounds were diluted to 2 μM. The dialysis device was loaded by transferring 150 μL of the test article (in triplicate) to the donor side. The dialysis device was placed in a humidified incubator at 37° C. with 5% CO2 in a shaking platform that rotated slowly for 4 hours. After incubation, 50 μL of the supernatant was taken from both sides and analyzed by LC-MS/MS.
(§3) To optimize the albumin binding potential of the heterobiligand, a plasma protein binding (PPB) experiment was performed. This experiment measured the amount of test article bound and free after equilibrating with plasma. Compound #6305 (folate-hshta-Lys(MPBA)-Gly-Phe-Lys(DOTA) (SEQ ID NO:6)), which contains the MPBA albumin binder, was 96.26% bound to mouse plasma and 98.34% bound to human plasma. […] In mouse and human plasmas 99.6% and 99.5% was bound, respectively.

[3] = Plasma protein binding (equilibrium dialysis), mouse; type: in vitro ADME, CD-1 mouse
Protocol: as §1, §2, §3

OVCAR3 cells = experiment: Cell internalization assay (acid wash, flow cytometry); type: cell-based, human; conditions: OVCAR3 cell line
Protocol: FIG. 10 is a diagram of an assay for assessing cell internalization FOLR1 heterobiligands.
The folate-hshta (SEQ ID NO:6) Nterm heterobiligand was also evaluated in cell penetration imaging assays (FIG. 10). OVCAR3 and PC-3 cells were incubated with the test article at 37° C. for 1 hour. Flow cytometry analysis of the resulting treated cells indicated strong binding to FOLR1 (+) cells. To understand the proportion bound to the surface but not internalized, the cells were briefly washed with acid to liberate the non-internalized peptide.
(§4) Nonclinical studies were first conducted with Folate-hshta-PEG10-PEG10-K(Biotin), where Folate-hshta is the targeting heterobiligand, PEG10 is a deca(ethylene glycol) linker, and K(Biotin) is the detection label. […] Cross reactivity with the murine folate receptor was also observed. […] In the merged image, purple puncta were observed indicating co-localization of internalized heterobiligand with early endosomes (Rab5a+ vesicles) in OVCAR3 cells.

OVCAR3 (FOLR+) cells = experiment: Fluorescence microscopy / live cell imaging of dye-labeled heterobiligand; type: cell-based, human; conditions: DyLight 650 label, OVCAR3 vs PC3
Source text: To further understand intracellular trafficking of the Nterm heterobiligand, these dye-labeled compounds were imaged by fluorescence microscopy. The cells were counterstained with BioTracker 490, which stains membranes, and Rab5a+, an endosomal stain. […] Low levels of DyLight650 was detected within PC-3 (FOLR1−) cells. Taken together, internalization of the heterobiligand appears to be receptor driven and selective for FOLR1 (+) cells.
as §4

human recombinant NEP, sequence (P08473 whole entry): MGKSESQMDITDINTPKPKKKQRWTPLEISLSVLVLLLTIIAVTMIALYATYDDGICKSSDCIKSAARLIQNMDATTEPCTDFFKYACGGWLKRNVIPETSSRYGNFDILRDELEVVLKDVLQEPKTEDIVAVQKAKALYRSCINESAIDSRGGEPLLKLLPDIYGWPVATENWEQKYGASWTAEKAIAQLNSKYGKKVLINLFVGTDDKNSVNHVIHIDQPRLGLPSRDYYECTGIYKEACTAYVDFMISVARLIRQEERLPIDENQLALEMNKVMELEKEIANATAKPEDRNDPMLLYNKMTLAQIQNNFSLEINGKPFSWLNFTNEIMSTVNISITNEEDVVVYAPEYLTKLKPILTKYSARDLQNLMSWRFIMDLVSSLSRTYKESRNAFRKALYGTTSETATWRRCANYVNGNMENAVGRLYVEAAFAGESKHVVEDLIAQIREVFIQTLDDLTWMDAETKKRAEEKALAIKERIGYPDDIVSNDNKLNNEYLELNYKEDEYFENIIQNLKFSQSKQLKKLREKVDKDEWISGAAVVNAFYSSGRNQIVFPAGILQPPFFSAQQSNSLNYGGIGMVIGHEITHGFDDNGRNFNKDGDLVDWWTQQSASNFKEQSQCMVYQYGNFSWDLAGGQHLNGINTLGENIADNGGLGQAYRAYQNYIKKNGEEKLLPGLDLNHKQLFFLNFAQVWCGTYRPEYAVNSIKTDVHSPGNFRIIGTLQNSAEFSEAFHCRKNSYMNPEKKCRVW

## CC(C)[N+](C)(CCOC(=O)C1c2ccccc2Oc2ccccc21)C(C)C [Propantheline bromide, reference compound]
Plasma stability, human; 2 μM, 37° C.
  half-life at 2 μM: 11.6 min
Plasma stability, mouse; 2 μM, 37° C.
  half-life at 2 μM: 44.8 min

## C[C@H](O)[C@H]1NC(=O)[C@@H](Cc2c[nH]cn2)NC(=O)[C@@H](CO)NC(=O)[C@@H](Cc2c[nH]cn2)NC(=O)[C@@H](NC(=O)CC[C@H](NC(=O)c2ccc(NCc3cnc4nc(N)[nH]c(=O)c4n3)cc2)C(=O)O)Cc2cn(nn2)CCCC[C@@H](C(=O)N[C@@H](CCCCNC(=O)CCCc2ccc(I)cc2)C(=O)NCC(=O)N[C@@H](Cc2ccccc2)C(=O)N[C@@H](CCCCNC(=O)CN2CCN(CC(=O)O)CCN(CC(=O)O)CCN(CC(=O)O)CC2)C(=O)O)NC(=O)[C@@H](C)NC1=O [^68Ga-chelated compound #1307, metal not drawn] ({Pteroyl-γGlu}-[Pra][dH][dS][dH][dT][dA][Lys(N3)]K(Butanoyl(4-(4-I-phenyl)))GFK(DOTA)-OH; triazole 1-7)
[1]
  heart exposure compared to compound #2809: less than two-fold increase
  kidney absorption: very low kidney absorption
  kidney dose compared to compound #2809: seven-fold reduction
  lung accumulation compared to compound #2809: greater than three-fold increase

## C[C@H](O)[C@H]1NC(=O)[C@@H](Cc2cnc[nH]2)NC(=O)[C@@H](CO)NC(=O)[C@@H](Cc2cnc[nH]2)NC(=O)[C@@H](NC(=O)CC[C@H](NC(=O)c2ccc(NCc3cnc4nc(N)[nH]c(=O)c4n3)cc2)C(=O)O)Cc2cn(nn2)CCCC[C@@H](C(=O)NCC(=O)N[C@@H](Cc2ccccc2)C(=O)N[C@@H](CCCCNC(=O)CON)C(=O)O)NC(=O)[C@@H](C)NC1=O [compound 3303, Fol-hshta-Gly-Phe-Lys(AO)] ({Pteroyl-γGlu}-[Pra][dH][dS][dH][dT][dA][Lys(N3)]GFK(X2)-OH; triazole 1-7)
Plasma stability, human; AO construct marked (FB)
  half-life at 2 μM: > 6940 min
Human recombinant NEP
  in vitro Assay Data (NEP assay): Cleavage of -G-F-K-
Plasma stability, mouse; AO construct marked (FB)
  half-life at 2 μM: > 6940 min

## C[C@H](O)[C@H]1NC(=O)[C@@H](Cc2c[nH]cn2)NC(=O)[C@@H](CO)NC(=O)[C@@H](Cc2c[nH]cn2)NC(=O)[C@@H](NC(=O)CC[C@H](NC(=O)c2ccc(NCc3cnc4nc(N)[nH]c(=O)c4n3)cc2)C(=O)O)Cc2cn(nn2)CCCC[C@@H](C(=O)NCCOCCOCCOCC(=O)N[C@@H](CCCCNC(=O)CO/N=C/c2ccc(F)cc2)C(N)=O)NC(=O)[C@@H](C)NC1=O [compound #2, Fol-hshta-PEG3-Lys(FB)] ({Pteroyl-γGlu}-[Pra][dH][dS][dH][dT][dA][Lys(N3)][AEEEA]K(X3)-NH2; triazole 1-7)
Plasma stability, human; Plasma Stability (t 1/2), 2 μM, 37° C.
  half-life: > 289 min
[2]
  recovery: 85%
[2]; human, plasma
  fraction unbound: 0.57
[3]
  recovery: 115%
[3]; mouse, plasma
  fraction unbound: 0.798
Plasma stability, mouse; mouse, Plasma Stability (t 1/2), 2 μM, 37° C.
  half-life: > 289 min

## heterobiligand labeled with DyLight 650: folate-hshta Nterm heterobiligand labeled with the dye DyLight 650 ([dH][dS][dH][dT][dA]; not fully specified (N-terminus); printed as hshta; also: labeled with DyLight 650, place not given here, heterobiligand)
OVCAR3 cells
  internalized fraction in acid wash (pH 3.0) assay: high percentage
OVCAR3 (FOLR+) cells
  internalization / intracellular localization: internalization with clear preference for early endosomes
OVCAR3 (FOLR+) cells; listed as DyLight650-labeled peptide-folate heterobiligand
  internalization / intracellular localization: Selective internalization into OVCAR3 (FOLR+) cells

Source: patent US11733246B2, “Compositions, imaging, and therapeutic methods targeting folate receptor 1 (FOLR1)” (Indi Molecular, Inc., priority 2020, dated 2023)
